The results in this text go back to patent US20070192880.

One data set has as its target ERα (expressed in cells) (UniProt P03372). Nature of the data set: cell_activity. The following applies: COS-1, E2; about 2-fold without ligand.
For the next data set, the target named is T1, CDC-SID (UniProt P03372).
T1 sequence: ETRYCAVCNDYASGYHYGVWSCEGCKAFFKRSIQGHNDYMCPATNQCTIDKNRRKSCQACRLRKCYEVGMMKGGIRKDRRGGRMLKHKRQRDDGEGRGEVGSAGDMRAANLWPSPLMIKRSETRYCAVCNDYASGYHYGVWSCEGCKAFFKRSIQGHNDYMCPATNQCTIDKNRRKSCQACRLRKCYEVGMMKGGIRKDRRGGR
The data set is described as follows: cell_activity.

The test system of a further data set is SID-CDC-SID. The data set is described as follows: cell_activity. The following applies: COS-1; given as decreased about 60% of that observed with parent vector.
A further data set deals with T2, SID-CDC (UniProt P03372).
T2 sequence: T1 sequence
Nature of the data set: cell_activity.

In data set [1] the target is T3, CDC ERE binding module (ERα C domain - D hinge - C domain fusion) (UniProt P03372).
T3 sequence: T1 sequence
Nature of the data set: EMSA. The following applies: apparent Kd from EMSA competition.

The target of another data set is T4, ERα (Homo sapiens) (UniProt P03372).
T4 sequence: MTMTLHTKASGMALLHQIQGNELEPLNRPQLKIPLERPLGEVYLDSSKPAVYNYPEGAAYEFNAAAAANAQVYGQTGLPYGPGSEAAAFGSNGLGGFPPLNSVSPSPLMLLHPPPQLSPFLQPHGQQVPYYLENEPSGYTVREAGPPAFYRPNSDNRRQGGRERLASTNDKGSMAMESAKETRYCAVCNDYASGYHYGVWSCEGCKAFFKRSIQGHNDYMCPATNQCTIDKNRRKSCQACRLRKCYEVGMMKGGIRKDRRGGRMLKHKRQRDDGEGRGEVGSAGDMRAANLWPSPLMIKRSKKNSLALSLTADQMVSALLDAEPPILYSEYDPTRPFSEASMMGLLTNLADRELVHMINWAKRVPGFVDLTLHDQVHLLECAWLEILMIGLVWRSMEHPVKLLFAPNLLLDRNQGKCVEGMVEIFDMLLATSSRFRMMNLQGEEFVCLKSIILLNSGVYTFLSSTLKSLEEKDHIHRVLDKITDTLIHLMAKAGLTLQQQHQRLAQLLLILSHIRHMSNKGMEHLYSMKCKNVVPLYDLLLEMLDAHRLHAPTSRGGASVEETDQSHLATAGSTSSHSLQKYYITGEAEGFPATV
The data set is described as follows: EMSA. The following applies: EMSA competition.

For the next data set, the target named is T5, SID-CDC-KRAB (UniProt P03372).
T5 sequence: T1 sequence
The data set is described as follows: cell_activity. The following applies: COS-1.

Another data set concerns the target T6, CDC-KRAB (UniProt P03372).
T6 sequence: T1 sequence
The data set is described as follows: cell_activity. The following applies: COS-1 and CHO; no effect without ERE.

In the next data set the target is T7, KRAB-CDC-SID (UniProt P03372).
T7 sequence: T1 sequence
The data set is described as follows: cell_activity. The following applies: COS-1.

The target of a further data set is T8, KRAB-CDC (UniProt P03372).
T8 sequence: T1 sequence
Nature of the data set: cell_activity. The following applies: COS-1 and CHO; no effect without ERE.

Another data set deals with T9, CDC (expressed in cells) (UniProt P03372).
T9 sequence: T1 sequence
Nature of the data set: cell_activity. The following applies: COS-1; little effect in CHO.

Setting [2] is: COS-1, given as decreased about 60% of that observed with parent vector.
The mark [3] stands for this setting: COS-1 and CHO, no effect without ERE.

Sequence of SID-CDC-SID (chain, as listed by the source): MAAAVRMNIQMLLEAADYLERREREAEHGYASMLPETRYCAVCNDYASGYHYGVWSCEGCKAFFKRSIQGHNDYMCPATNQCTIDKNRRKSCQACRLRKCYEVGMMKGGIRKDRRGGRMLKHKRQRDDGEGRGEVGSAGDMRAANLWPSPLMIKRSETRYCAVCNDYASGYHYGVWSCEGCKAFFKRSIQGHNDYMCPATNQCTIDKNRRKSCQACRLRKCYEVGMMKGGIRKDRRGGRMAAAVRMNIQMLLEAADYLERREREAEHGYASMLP

In turn, complement C3 promoter gave an activity in the data set with ERα (expressed in cells) of 11 fold.
As for cathepsin D promoter, the activity in the data set with CDC-SID (setting [2]), in the data set with SID-CDC-SID and with SID-CDC (setting [2]) was 60 % repression each time.
On to “GGTCANNNTGACC (double strand) [consensus ERE]”, for which the results for the Kd (in data set [1]; with ERα (Homo sapiens)) were 1.49 nM and 0.26 nM, respectively.
For “GGTCANNNTGACC (double strand) [SV40 enhancer/promoter with one consensus ERE]”, the activity with SID-CDC-KRAB is 95 % repression; in the data set with CDC-KRAB, 80 % repression; with CDC-SID (setting [3]), 80 % repression; with KRAB-CDC-SID, 95 % repression; with SID-CDC (setting [3]), 50 % repression; in the data set with KRAB-CDC it was 50 % repression. For the same substance, in the data set with CDC (expressed in cells), the activity is 50 % repression.
